According to patent US20210221880A1 (CAS LAMVAC GUANGZHOU BIOMEDICAL TECHNOLOGY, published 2021):

Experiments:
[1] = molecular target: T1, ID1 polypeptide with Strep-tag (Plasmodium falciparum); assay: antigen-specific ELISA, OD450
T1 construct: Expressed in E. coli, predicted 17 kDa; also called ID1 antigen peptide
T1 chain: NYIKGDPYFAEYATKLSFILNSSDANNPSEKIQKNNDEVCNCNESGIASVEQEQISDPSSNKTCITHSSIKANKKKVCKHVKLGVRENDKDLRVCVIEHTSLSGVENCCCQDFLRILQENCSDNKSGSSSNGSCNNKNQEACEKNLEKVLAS

[2] = molecular target: T2, DBL2X polypeptide with Strep-tag (Plasmodium falciparum); assay: antigen-specific ELISA, OD450
T2 construct: Expressed in E. coli, predicted 40 kDa; also called DBL2X antigen peptide
T2 chain: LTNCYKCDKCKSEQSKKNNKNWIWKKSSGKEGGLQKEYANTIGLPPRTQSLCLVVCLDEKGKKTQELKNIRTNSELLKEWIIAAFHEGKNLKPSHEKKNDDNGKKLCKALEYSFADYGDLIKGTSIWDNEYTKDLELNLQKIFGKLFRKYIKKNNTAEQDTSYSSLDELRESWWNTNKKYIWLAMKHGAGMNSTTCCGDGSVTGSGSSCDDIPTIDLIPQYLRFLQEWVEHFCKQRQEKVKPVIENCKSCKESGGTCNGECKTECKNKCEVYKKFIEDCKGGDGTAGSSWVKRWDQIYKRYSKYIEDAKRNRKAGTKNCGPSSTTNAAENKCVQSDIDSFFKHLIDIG

[3] = molecular target: T3, rVAR2 recombinant protein with a Strep-tag (prokaryotically expressed and purified) (Plasmodium falciparum); assay: Western blot, 5H4 as primary antibody
T3 construct: Expressed in E. coli, about 74 kDa; also called prokaryotically expressed and purified rVAR2 protein; strep-tagged rVAR2 recombinant protein
T3 chain: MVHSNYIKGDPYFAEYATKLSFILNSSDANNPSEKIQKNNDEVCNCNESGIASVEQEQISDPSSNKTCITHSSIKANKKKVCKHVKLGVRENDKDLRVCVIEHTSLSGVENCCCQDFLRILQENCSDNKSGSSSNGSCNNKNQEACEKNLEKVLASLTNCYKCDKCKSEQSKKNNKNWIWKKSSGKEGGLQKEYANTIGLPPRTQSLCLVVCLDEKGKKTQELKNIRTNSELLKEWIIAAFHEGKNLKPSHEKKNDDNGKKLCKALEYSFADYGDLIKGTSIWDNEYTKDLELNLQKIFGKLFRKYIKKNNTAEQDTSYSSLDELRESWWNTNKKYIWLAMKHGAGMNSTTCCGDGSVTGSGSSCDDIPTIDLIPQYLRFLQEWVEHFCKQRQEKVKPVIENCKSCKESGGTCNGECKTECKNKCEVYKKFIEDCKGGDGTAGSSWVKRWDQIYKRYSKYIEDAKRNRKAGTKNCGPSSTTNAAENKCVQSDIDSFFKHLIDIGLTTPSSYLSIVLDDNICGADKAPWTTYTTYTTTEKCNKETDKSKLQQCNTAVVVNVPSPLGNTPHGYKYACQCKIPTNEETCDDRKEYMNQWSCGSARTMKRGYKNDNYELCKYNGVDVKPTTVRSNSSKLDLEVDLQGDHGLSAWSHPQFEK

[4] = molecular target: T4, rVAR2 recombinant protein with the 3xFLAG-tag (eukaryotically expressed and purified) (Plasmodium falciparum, Possible post-translational modification (runs at about 115 kDa against 76 kDa predicted); not carried by the letters.); assay: Western blot, 5H4 as primary antibody
T4 construct: Expressed in HEK293 or HEK293T cells; Predicted about 76 kDa, runs at about 115 kDa (possible post-translational modification); also called eukaryotically expressed and purified rVAR2 protein
T4 chain: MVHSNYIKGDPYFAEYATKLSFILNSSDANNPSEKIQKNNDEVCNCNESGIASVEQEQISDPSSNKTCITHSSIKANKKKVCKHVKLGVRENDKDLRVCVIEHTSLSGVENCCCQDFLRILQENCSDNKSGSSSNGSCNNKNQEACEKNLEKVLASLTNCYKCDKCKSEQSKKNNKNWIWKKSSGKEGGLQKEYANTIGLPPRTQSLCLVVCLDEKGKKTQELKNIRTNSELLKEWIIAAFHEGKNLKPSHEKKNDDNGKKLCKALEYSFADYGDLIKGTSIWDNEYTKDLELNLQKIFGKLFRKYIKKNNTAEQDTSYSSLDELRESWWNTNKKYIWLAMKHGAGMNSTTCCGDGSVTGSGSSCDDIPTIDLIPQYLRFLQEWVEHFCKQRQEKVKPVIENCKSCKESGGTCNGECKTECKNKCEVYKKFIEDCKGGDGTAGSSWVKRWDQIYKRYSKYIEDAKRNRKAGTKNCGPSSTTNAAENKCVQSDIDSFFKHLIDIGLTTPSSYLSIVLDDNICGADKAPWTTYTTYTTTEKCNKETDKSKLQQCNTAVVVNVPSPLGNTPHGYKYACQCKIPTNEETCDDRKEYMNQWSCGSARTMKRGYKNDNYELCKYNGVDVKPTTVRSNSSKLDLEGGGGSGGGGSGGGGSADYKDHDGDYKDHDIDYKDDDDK

[5] = molecular target: T5, ID2a polypeptide with Strep-tag (Plasmodium falciparum); assay: antigen-specific ELISA, antigen coated at 1 µg/ml
T5 construct: Expressed in E. coli, predicted about 15 kDa; also called ID2a antigen peptide
T5 chain: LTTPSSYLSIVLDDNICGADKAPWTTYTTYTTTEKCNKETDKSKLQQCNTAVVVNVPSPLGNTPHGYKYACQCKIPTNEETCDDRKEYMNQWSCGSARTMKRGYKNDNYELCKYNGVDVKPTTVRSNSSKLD

B1: anti-rVAR2 monoclonal antibody 5H4 (antibody, V domains shown)
VH: EVKLVESGGGLVKPGGSLKLSCAASGFTFSNYAMSWVRQSPERRLEWVAEISITGRYTYYPDTVTGRFTISRDNAKNTLYLEMSSLRSEDTAMYYCTREGYDYAPSWFAYWGQGTLVTVSA
VL: DVVMTQTPLSLPVSLGDQASISCRSGQTLVHRNGITYLEWYLQKPGQSPKLLIYKVSNRFSGVPDRFSGSGSGTDFTLKISRVEAEDLGIYYCFQGSHVPRTFGGGTKLEIK
notes: Murine IgG from a mouse B cell hybridoma, purified from hybridoma supernatant; isotype and constant regions are not; also called murine monoclonal antibody 5H4
[1]
  binding result: no binding (tested: antigen coated at 1 µg/ml)
[2]
  binding result: no binding (tested: antigen coated at 1 µg/ml)
[3]
  binding result: binds
[4]
  binding result: binds
[5]
  binding result: binds
